Among the data in a protein production outcome set (Wang et al. 2014) are protein production values, retold here.

This data set in a line: label from the status in PepcDB records.

Turning to “MQTRLATKQDIDTLATLERQHLNDELISGGFHLEGQAFTRTELTQLVEKHWIVVAEVNGRIIGYVIAGRWSFFETWPIYRNMLQRLNRMNGDGPQLTTQNSCQYGPIWIDNAHRGQGVFEALIAGIYREVAPSFDYMVTFIADENERSLAAHTRKANM”, the protein production result was “failed”.
To “MQTVKYLARNSGFLFLNGIATNILSFFAMLYIARHLGPEDYGIFSFAFAFIYFFSFIPDMGVHQILVREAAKEPGKAGKLIGNGTIIKFFLSFVAIILAFILINLIGFPSSTKNALYIASLGLLISGTGAYGIIYEAKLRMEYSLLFNLVSRVCLLLFVFLAVAINSTLNTFIFASVSATFVHNLLMVLFSKKLVKVSFNPDITLIKQLLREAIPIAIASVFTVVYFKIDVLMLSFLRGDAEVGFYSAAYRLTDALVFLPSAFTTSTFPLMSRYFKESFNSFSFAYARTFKYLFASGLLIAVLVTFASEKIILIFYGPEYQNSVIALQILIWATAITFISVLISSTCVSSGNQQIISKTAILAALLNVSLNLILIPSTGYIGAAVATVLSVLGSMVFGLIWVHKNLLHENPLKGTISPIIGAGVVSLFIILLEPYADIMFLSAVSVPLFAAVLYTTGWIDSDDKTIFLKLFPASRLNSKKF” belongs “failed”; to “MQVSREFKGIFLASISATFWGISGAVAQTLFDTTDINSIWLTGIRMLGAGIALLLVSLLTHVDLWSIWRQPRDLLQIVAYTLLGLMPVQFTYFLAVEASNAATGTILQFMGPVFIALWMLVAHRQLPTRAEGLAIICALLGSFLLVTHGNPQTLVISVWALIWGLLSGVSSATNTLLPTKLLTKYDPMTVNTWSMLLGGILFNIVQPVWSIHIPLTMLNISKLTFVVLFGTLLAFLFFLQSLQYIRPTVVSLLDAFEPLSATIIAVVLLGVSFGWLDILGSVLIISTVFILAIGQGPNDRTAENFKQP”, “failed”; to “MQYINIANRGVKSLSPYQAGKPIEELERELGISNIVKLASNENPFGFPESAKKAIFEQLDKLTRYPDANGFELKQTIAKKFGVQPNQITLGNGSNDLLELFAHTFATEGDEIMYSQYAFIVYPLVTKAINAIVKEIPAKNWGHDLQGFLTALSDKTKLIYIANPNNPTGNFLTSQEIEDFLAEVPENVIVVLDEAYTEFTRSEERVDSFSLLKKYSNLIISRSLSKAYGLAGLRIGYAVSNPEIADLLNRVRQPFNCNSLALTAAVAVMNDDKFVEKVAENNRIEMRRYEDFCQKNQLDYIPSKGNFITIDFKQPAAPIYDALLREGVIVRPIAGYGMPNHLRISIGLPEENDKFFTALSKVLKFA”, “not failed”.
“MQYRIRRENEAPEAKNAGETLWERDIMREVLLSAYRDRRRERMWKNIWRAVSTLILVALIAGIFRKDEAALQLAGNTPHTAVVNLYGKIGNGVEDQVKKLKDGMEAAYKNPQAKAIVIRANSPGGSPVVSNTAFEEIRRLKAQHPGIPVYLVAEDMCASGCYYIAAAADKIYADPSSIVGSIGVIGSSFDATGLMEKIGVKRRVKIAGSNKGMGDPFSPETPEQSKIWEEMLTGIHGEFIKAVKTGRGGRLKFRQYPDVFSGRVYTGADALKVGLVDGLGNIYSVARDVVKAPDVVDYTPKDDFGRILGRRFGAELKASVSEALQAVRLEHHHHHH”: the protein production result is “not failed”.
“MRAAFLIGILAAMGALTQGGSISETVGAGLIDGATITSLAAVAGLLTATGFMAFGIYSGYPVPAAFATTGAMVGVGLSLGGQPVFDTYRRIATFWLLVPPVSGSLAYLTATVLRRDDIPETVGVPLLAGVVGGIVANVQLSIIPSPAGTDQGSLAGFAAMVAGTDIAAVATTLLVAAGSFYYIRRQTQASVDKGIKTFLVVLGSVVAFSSGGSQVGLATGPLENLYRAELGLPGFVLLALGAVGILGGAWMGAPRLLQATSREYAQLGVRRSIAALVPGFIIAQAAIALGIPISFNNIIISGVIGGGLAGGSAGVSRRKIGVTVGFWLITLVTSVVIGFGVYQVLEAALGSQV”: the protein production entry is “failed”.
As to “MRAMRLVEIGKPLKLEDIPIPKPKGSQVLIKIEAAGVCHSDVHMRQGRFGNLRIVEDLGVKLPVTLGHEIAGRIEEVGDEVVGYSKGDLVAVNPWEGEGNCYYCRIGEEHLCDSPRWLGINYDGAYAEYVLVPHYKYLYKLRRLSAVEAAPLTCSGVTTYRAVRKASLDPSKTLVVIGAGGGLGTMAIQIAKAVSGATIIGVDVREEALEAAKRAGADYVINASSQDPVSEIRRITQGKGADAVIDLNNSEKTLSIYPYVLAKQGKYVMVGLFGADLKYHAPLITLNEVQFIGSLVGNQSDFLGIMSLAEAGKVKPMVTKTMKLEEANEAIDNLENFKAVGRQVLVP”, the protein production result is given as “not failed”.
As for “MRARRRVMAKREALRAGSKASRQATPNSQPELEGKLFAEQDAGERTHEKLVFVPRVDIYETETGLVVVADLPGVGPEGLEVTLEKRVLSIYGRVKEDTPEGYSQAYREYEVGDFERQFTLSGDFEINGIEANIKDGVLHLAIPRAPEAAAKRIEVRSVS”, the protein production result is “failed”.
Then “MRAVIQRVKKSWVEVDGKVVGSINEGLNVFLGVRKGDTEEDIEKLVNKILNLRIFEDERGKFQYSVLDIKGEILVVSQFTLYANVKKGRRPSFEEAEEPKRAKELYEKFVDKIKESGLKVETGIFGAMMDVFIENWGPVTIIIDSREI”, with “not failed”; and “MRCCHSGKSYRLWGHRSSQRHRSGETGRGRLRIDQPGAASRRGSRALSWCGCHHVPCPDVTGAGRVRATCRRSFVHERNPHLHMLDAFHRGDVGLYTGTMTAPALLSREAELSRRDLIALESRLREAVSRFLPFKAYSLYFPREAETVEPLWLPGEGRLLLPLIHGGALLAVFVARGVPRRIVRSLMPAFPGLLALCMENLALYKAGRTDALTGLSTRQHLVERMAREADHVRTCFANPPEGEGDLGAPLHRACMGLVVVRLASLRQVARDHGYTFADRLTTELARELSALAPEQALAARTGDYEFALLVPAAASGVCRKLAEEAVQRLSAVSLRCGLTEKAVRVCVSAGYAVYPRDMEGALFERDMAEQARVLLRKARLAAAVAGEGEGSEGPGVMGFARILAEGGAVVETHPLSRVMVNLGRSMNAREGQRFSVWSVAYPVRGGTHEPRQPLYKGEVVLLEVREDRSVAEILHLGDPTWPIEPGDRLTLLPEEKGGDARRDASGVQVDPLTGLYRHGDFLARWSEAREGCDCFALALVRFSDDGRDPEGRASHPEQLMAEAAQLCRDHFGAETLGGRYGLNSIVFFHPDMTCDAARESYRQLCDLLSKRLRIDAAVGVGCHPFLAYRRADALENALKALEYALLLPEPRVGIFDSLALNISADKRFSLGDTFGAIEEYKTALLADEGNTMAWNSLGVCMAGLGRHGEARRYFEQALQRKPGDPMALYNLGTVCQSLGETAEARKQYRKCLKYAPGHVFALVRLGQLAEGEKRYAQARQYFNKAARAGDSGGLVHRNLARLSMRQGRPDEAREHLHDALLRNPQDAVALQLMARLYLDGGEDPAMAEALSRQSVALRPDLKQGWLELARALDARGHVAEAREARLRAGER”, with “failed”.
On to “MRCGWLLGFLFLLSVLSYPRPAVAMTVLAEEYAPLSYSVDGQPRGFAVELFHELERRLALPPSDVTFMAWSRAYRLLLRGPRHAILFMGRTMEREDKVWFVGPIWVEDDYFYKKAGSHVAAATLDEARTVSRIGVVRDDFYQLRLQEMGFTNLDLGTSHEQGLRKLAQGRVDLVPMGELTAASQIANYPGLSMDSFERTDIHLLRSEMYIGFSRDMAWVEVERWQKALDHLRQDGTYDQILRKFVPQWRSR”, for which the protein production result is “failed”.
To “MRCKRHTVDFSSSIGVCASCLRERLFTLAVSTAASENDDNDHRHSRISPPPLLFPRSVSPYVAPRKSDAGTGTGAGGRDSVASSNNRFFATPQVVVQSSSSEKVFESDRSFKKKKSGLSRFSSFFRTRSDDYDSRRDSCDASTVFSQPSSATTSRSWFSKVISVRSKKQSTTNTCYIEDLIASESDHHHHNQNRPRQRYCRGMSPAGDSTTNDESVEESPGRLRRTPVMGTPGRKKTATIGIGRSVSGMAFCLSPLVRAKPNCSSNWKAKFPPDFGYSGELKSPAKPHLSTAASFCGNRSKKLVDLGRVDHRR” belongs “failed”.
In the case of “MRCRVYYEDTDSEGVVYHANYLKYCERARSEFFFKQNVLPENEEGVFVIRSIKADFFTPASLGQVLEIRTQIKELRKVFVVLFQEIYCIQNASLEPMKPFKVFASEIKFGFVNRSTYSPIAIPKLFKELLNAI”, the protein production entry is listed as “failed”.
To “MRDFLVRYFPTFMLTVLLGCFSASLLLSLAGTTYWRAMAPPQRDEYLLFGLLVLIPLLVLGNLLIVRGISRAVWLVAGYFVACLLGVVPMFQYHPHQGVYLFGVLLPLLGLLLLNSKRHREMRERLLQIRQQRQRFKQQRKRG” belongs “failed”.
